# Laboratory results taken from the supplement of paper PMC10724198.
# ± gives the standard deviation of the averaged measurements.
# What was measured:
# Saccharomyces cerevisiae [1] = assay: protein stability index of tFT-peptide fusion (C-terminal peptide) (PSI (0-1 scale)); higher = more stable (slower turnover)
# Description: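 MPS profiling in S. cerevisiae of the tFT-X12 degron library: putative degron peptides plus stable controls, 12 aa, fused to the C-terminus of a sfGFP-mCherry timer. Cells are FACS-sorted into 8 mCherry/sfGFP bins and deep-sequenced. PSI runs from 0 (unstable) to 1 (stable). Backgrounds are wild type, das1Δ and doa10Δ at 30 °C, and wild type, das1Δ, cdc34-1 and cdc53-1 at 37 °C; 2-3 technical replicates each.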
# Saccharomyces cerevisiae [2] = assay: as above; conditions: genetic background: wild type; temperature: 30 C
# [3] = genetic background: cdc34-1, temperature: 37 C
# [4] = genetic background: cdc53-1, temperature: 37 C
# [5] = genetic background: das1 deletion, temperature: 30 C
# [6] = genetic background: das1 deletion, temperature: 37 C
# [7] = genetic background: doa10 deletion, temperature: 30 C
# [8] = genetic background: wild type, temperature: 30 C
# [9] = genetic background: wild type, temperature: 37 C
# 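Note: PSI is a weighted mean of sequencing reads over stability bins, variants kept only with over 10 reads, mCherry proximal and sfGFP distal, peptide attached via GGGS linker.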
Sequence,protein stability index (Saccharomyces cerevisiae [1]; [3]),protein stability index (Saccharomyces cerevisiae [1]; [4]),protein stability index (Saccharomyces cerevisiae [1]; [5]),protein stability index (Saccharomyces cerevisiae [1]; [6]),protein stability index (Saccharomyces cerevisiae [1]; [7]),protein stability index (Saccharomyces cerevisiae [1]; [8]),protein stability index (Saccharomyces cerevisiae [1]; [9]),protein stability index (Saccharomyces cerevisiae [2])
CFVQVGGLVKIS,0.66 ± 0.045,0.725 ± 0.042,0.61 ± 0.012,0.731 ± 0.033,0.248 ± 0.02,0.293 ± 0.036,0.57 ± 0.04,0.412 ± 0.012
CFVSFLHLLYFS,0.347 ± 0.044,0.341 ± 0.025,0.35 ± 0.025,0.4666 ± 8.3e-05,0.506 ± 0.0063,0.296 ± 0.024,0.425 ± 0.0054,0.362 ± 0.015
CGFVCGLCLCRV,0.552 ± 0.052,0.586 ± 0.016,0.364 ± 0.04,0.605 ± 0.042,0.345 ± 0.023,0.381 ± 0.031,0.572 ± 0.013,0.484 ± 0.0062
CGFVFFVLVVFW,0.112 ± 0.0055,0.17 ± 0.0063,0.12 ± 0.033,0.229 ± 0.0079,0.15 ± 0.0054,0.114 ± 0.025,0.193 ± 0.026,0.15 ± 0.035
CGQIAFLGIAVK,0.479 ± 0.0077,0.504 ± 0.043,0.317 ± 0.042,0.551 ± 0.024,0.289 ± 0.015,0.323 ± 0.029,0.541 ± 0.0077,0.4722 ± 0.0006
CGWFVSVGWRLG,0.5443 ± 0.0014,0.67 ± 0.037,0.514 ± 0.016,0.66 ± 0.0096,0.228 ± 0.014,0.305 ± 0.035,0.5062 ± 0.0022,0.25 ± 0.013
CHFLLHYVFLLS,0.3792 ± 0.0019,0.456 ± 0.0076,0.306 ± 0.037,0.523 ± 0.0055,0.241 ± 0.0065,0.267 ± 0.024,0.462 ± 0.015,0.417 ± 0.017
CHPIPLARLAPT,0.671 ± 0.032,0.745 ± 0.032,0.67 ± 0.046,0.7433 ± 0.0058,0.652 ± 0.026,0.666 ± 0.014,0.697 ± 0.011,0.72 ± 0.013
CKKATILRIKSM,0.589 ± 0.049,0.715 ± 0.051,0.643 ± 0.014,0.691 ± 0.0021,0.17 ± 0.023,0.19 ± 0.031,0.298 ± 0.059,0.304 ± 0.013
CLCYFLFYFLFV,0.49 ± 0.0055,0.513 ± 0.026,0.436 ± 0.033,0.572 ± 0.0063,0.465 ± 0.023,0.442 ± 0.029,0.543 ± 0.028,0.501 ± 0.043
CLEHLVYCRLAS,0.435 ± 0.046,0.624 ± 0.06,0.555 ± 0.015,0.6774 ± 0.0062,0.0612 ± 0.0023,0.0694 ± 0.025,0.0634 ± 0.0027,0.131 ± 0.022
CLHFLTWVRICS,0.2 ± 0.041,0.4701 ± 0.0029,0.409 ± 0.019,0.526 ± 0.011,0.0895 ± 0.0063,0.0814 ± 0.025,0.0804 ± 0.03,0.285 ± 0.041
CLNPCVRWDGHV,0.739 ± 0.065,0.7589 ± 0.0016,0.651 ± 0.039,0.77 ± 0.0062,0.661 ± 0.05,0.687 ± 0.028,0.732 ± 0.011,0.708 ± 0.0077
CMAWLSVLKTLF,0.709 ± 0.082,0.744 ± 0.023,0.63 ± 0.017,0.756 ± 0.037,0.387 ± 0.037,0.421 ± 0.012,0.615 ± 0.053,0.495 ± 0.04
CRQDWMCFVYLS,0.0642 ± 0.013,0.0406 ± 0.0042,0.145 ± 0.021,0.187 ± 0.031,0.166 ± 0.0047,0.0558 ± 0.007,0.0647 ± 0.023,0.108 ± 0.016
CVFAYSPVALRC,0.543 ± 0.025,0.534 ± 0.014,0.409 ± 0.024,0.556 ± 0.0084,0.412 ± 0.016,0.403 ± 0.018,0.532 ± 0.018,0.488 ± 0.01
CVFGFACRVLVV,0.288 ± 0.012,0.32639 ± 4.3e-05,0.281 ± 0.031,0.407 ± 0.0012,0.241 ± 0.011,0.278 ± 0.02,0.364 ± 0.01,0.338 ± 0.017
CYKYTYVKNNMI,0.689 ± 0.042,0.7646 ± 0.0044,0.642 ± 0.038,0.753 ± 0.014,0.197 ± 0.013,0.231 ± 0.044,0.555 ± 0.014,0.249 ± 0.051
CYRRCQAFLVLV,0.313 ± 0.024,0.397 ± 0.015,0.334 ± 0.031,0.449 ± 0.015,0.134 ± 0.0022,0.127 ± 0.026,0.162 ± 0.011,0.181 ± 0.0026
DFVFFLVSVRFR,0.103 ± 0.039,0.216 ± 0.059,0.177 ± 0.037,0.32 ± 0.017,0.15 ± 0.013,0.178 ± 0.03,0.284 ± 0.0058,0.284 ± 0.081
